{"source": "patent US20240132577A1", "about": "(US Dept. of Health and Human Services, published 2024)", "binders": {"B1": {"name": "Nb15-tri-IgG1 (Fc fusion)", "chain": "QVQLQESGGGLVQAGGSLRVSCAASGLPFSDYLMGWFRQAPGKEREYVAAISQNGGHTYADSVLGRFTISRDNAKNTVYLQMNMLTPGDTAVYSCAARRPGGGRWDAAHDYNYWGQGTQVTVSSGGGGSGGGGSGGGGSQVQLQESGGGLVQAGGSLRVSCAASGLPFSDYLMGWFRQAPGKEREYVAAISQNGGHTYADSVLGRFTISRDNAKNTVYLQMNMLTPGDTAVYSCAARRPGGGRWDAAHDYNYWGQGTQVTVSSGGGGSGGGGSGGGGSQVQLQESGGGLVQAGGSLRVSCAASGLPFSDYLMGWFRQAPGKEREYVAAISQNGGHTYADSVLGRFTISRDNAKNTVYLQMNMLTPGDTAVYSCAARRPGGGRWDAAHDYNYWGQGTQVTVSSDKTHTCPPCPAPELLGGPSVFLFPPKPKDTLMISRTPEVTCVWDVSHEDPEVKFNWYVDGVEVHNAKTKPREEQYNSTYRWSVLTVLHQDWLNGKEYKCKVSNKALPAPIEKTISKAKGQPREPQVYTLPPSREEMTKNQVSLTCLVKGFYPSDIAVEWESNGQPENNYKTTPPVLDSDGSFFLYSKLTVDKSRWQQGNVFSCSVMHEALHNHYTQKSLSLSPGKHHHHHH"}, "B2": {"name": "Nb19-tri-IgG1 (Fc fusion)", "chain": "QVQLQESGGGLVQAGGSLRLSCAASGSGFSIHAMGWYRQAPGKQREFVAVVGHKTNYADSVKGRFTISRDVGKNTVELQMNSLKVEDTAVYYCYCNTIVTMTGVPDAVWGQGTQVTVSSGGGGSGGGGSGGGGSQVQLQESGGGLVQAGGSLRLSCAASGSGFSIHAMGWYRQAPGKQREFVAVVGHKTNYADSVKGRFTISRDVGKNTVELQMNSLKVEDTAVYYCYCNTIVTMTGVPDAVWGQGTQVTVSSGGGGSGGGGSGGGGSQVQLQESGGGLVQAGGSLRLSCAASGSGFSIHAMGWYRQAPGKQREFVAVVGHKTNYADSVKGRFTISRDVGKNTVELQMNSLKVEDTAVYYCYCNTIVTMTGVPDAVWGQGTQVTVSSDKTHTCPPCPAPELLGGPSVFLFPPKPKDTLMISRTPEVTCVWDVSHEDPEVKFNWYVDGVEVHNAKTKPREEQYNSTYRWSVLTVLHQDWLNGKEYKCKVSNKALPAPIEKTISKAKGQPREPQVYTLPPSREEMTKNQVSLTCLVKGFYPSDIAVEWESNGQPENNYKTTPPVLDSDGSFFLYSKLTVDKSRWQQGNVFSCSVMHEALHNHYTQKSLSLSPGKHHHHHH"}, "B3": {"name": "msNb12-tri-IgG2a (Fc fusion)", "chain": "QVKLEESGGGSVQAGGSLRLICTAPGLTHNNCGLDWYRRAPGKEREFVSSISADGTTSYADSVKGRFTISKDKVEDTVYLQMNSLKPEDTAIYSCKTAFPYFGNSCVLDYWGQGTSVTVSSGGGGSGGGGSGGGGSQVKLEESGGGSVQAGGSLRLICTAPGLTHNNCGLDWYRRAPGKEREFVSSISADGTTSYADSVKGRFTISKDKVEDTVYLQMNSLKPEDTAIYSCKTAFPYFGNSCVLDYWGQGTSVTVSSGGGGSGGGGSGGGGSQVKLEESGGGSVQAGGSLRLICTAPGLTHNNCGLDWYRRAPGKEREFVSSISADGTTSYADSVKGRFTISKDKVEDTVYLQMNSLKPEDTAIYSCKTAFPYFGNSCVLDYWGQGTSVTVSSEPKIPQPQPKPQPQPQPQPKPQPKPEPECTCPKCPAPELLGGPSVFLFPPKPKDTLMISRTPEVTCVWDVSHEDPEVKFNWYVDGVEVHNAKTKPREEQYNSTYRWSVLTVLHQDWLNGKEYKCKVSNKALPAPIEKTISKAKGQPREPQVYTLPPSREEMTKNQVSLTCLVKGFYPSDIAVEWESNGQPENNYKTTPPVLDSDGSFFLYSKLTVDKSRWQQGNVFSCSVMHEALHNHYTQKSLSLSPGKHHHHHH"}, "B4": {"name": "Nb17-tri-IgG1 (Fc fusion)", "chain": "QVQLQESGGGLVQTGGSLRLSCAASGRTFGIYRMGWFRQAPGKEREFVAAITSSADTAQYRDSVKGRFAISRDNAKNTLYLQMNSLKPEDTAIYYCAARDPTTLEYGNWGQGTQVTVSSGGGGSGGGGSGGGGSQVQLQESGGGLVQTGGSLRLSCAASGRTFGIYRMGWFRQAPGKEREFVAAITSSADTAQYRDSVKGRFAISRDNAKNTLYLQMNSLKPEDTAIYYCAARDPTTLEYGNWGQGTQVTVSSGGGGSGGGGSGGGGSQVQLQESGGGLVQTGGSLRLSCAASGRTFGIYRMGWFRQAPGKEREFVAAITSSADTAQYRDSVKGRFAISRDNAKNTLYLQMNSLKPEDTAIYYCAARDPTTLEYGNWGQGTQVTVSSDKTHTCPPCPAPELLGGPSVFLFPPKPKDTLMISRTPEVTCVWDVSHEDPEVKFNWYVDGVEVHNAKTKPREEQYNSTYRWSVLTVLHQDWLNGKEYKCKVSNKALPAPIEKTISKAKGQPREPQVYTLPPSREEMTKNQVSLTCLVKGFYPSDIAVEWESNGQPENNYKTTPPVLDSDGSFFLYSKLTVDKSRWQQGNVFSCSVMHEALHNHYTQKSLSLSPGKHHHHHH"}, "B5": {"name": "Nb56-tri-IgG1 (Fc fusion)", "chain": "QVQLQESGGGLVQAGDSLRLSCVASERTFRRYGMGWFRQAPGKEREFVAAVDRSHTKTGYADFVKGRFTISTNYENMVYLQMNSLKPEDTAVYYCAAPSYEKGSDPTSWNTDRGYDYWGQGTQVTVSSGGGGSGGGGSGGGGSQVQLQESGGGLVQAGDSLRLSCVASERTFRRYGMGWFRQAPGKEREFVAAVDRSHTKTGYADFVKGRFTISTNYENMVYLQMNSLKPEDTAVYYCAAPSYEKGSDPTSWNTDRGYDYWGQGTQVTVSSGGGGSGGGGSGGGGSQVQLQESGGGLVQAGDSLRLSCVASERTFRRYGMGWFRQAPGKEREFVAAVDRSHTKTGYADFVKGRFTISTNYENMVYLQMNSLKPEDTAVYYCAAPSYEKGSDPTSWNTDRGYDYWGQGTQVTVSSDKTHTCPPCPAPELLGGPSVFLFPPKPKDTLMISRTPEVTCVWDVSHEDPEVKFNWYVDGVEVHNAKTKPREEQYNSTYRWSVLTVLHQDWLNGKEYKCKVSNKALPAPIEKTISKAKGQPREPQVYTLPPSREEMTKNQVSLTCLVKGFYPSDIAVEWESNGQPENNYKTTPPVLDSDGSFFLYSKLTVDKSRWQQGNVFSCSVMHEALHNHYTQKSLSLSPGKHHHHHH"}, "B6": {"name": "Nb21 (VHH)", "VHH": "QVQLVESGGGLVQAGGSLRLSCAVSGLGAHRVGWFRRAPGKEREFVAAIGANGGNTNYLDSVKGRFTISRDNAKNTIYLQMNSLKPQDTAVYYCAARDIETAEYTYWGQGTQVTVSS"}, "B7": {"name": "Nb4 (VHH)", "VHH": "QVQLVESGGGLVQAGGSLRLSCVASGSGFEPNAMGWYRQAPGKQRELVAGITSGGNANYADSVKGRFTISRDNVKNTVYLQMNSLKPEDTAVYYCNAVGPRFNPRGSPTNYWGQGTQVTVSS"}}, "note": "Where “and” joins values, the source holds several entries; their conditions need not be identical. Equal values may be shown once.", "data": [{"molecular_target": "T1, SARS-CoV-2 S protein (C-terminally truncated, on pseudotyped virus) (SARS-CoV-2 (Wuhan-Hu-1), UniProt P0DTC2 14-1254)", "assay": "cell-based or functional assay", "values": [{"binder": "B1", "IC50 (pseudovirus neutralization)": "10 ng/ml and 142 nM", "IC90 (pseudovirus neutralization)": "26.9 ng/ml and 381 nM"}, {"binder": "B2", "IC50 (pseudovirus neutralization)": "0.65 ng/ml and 9.38 nM", "IC90 (pseudovirus neutralization)": "3.96 ng/ml and 57.6 nM"}, {"binder": "B3", "IC50 (pseudovirus neutralization)": "4.71 ng/ml and 64.8 nM", "IC90 (pseudovirus neutralization)": "74 ng/ml and 1.02 µM"}, {"binder": "B4", "IC50 (pseudovirus neutralization)": "1.24 ng/ml and 18 nM", "IC90 (pseudovirus neutralization)": "4.7 ng/ml and 68.2 nM"}, {"binder": "B5", "IC50 (pseudovirus neutralization)": "3.91 ng/ml and 54.5 nM", "IC90 (pseudovirus neutralization)": "18.6 ng/ml and 260 nM"}]}, {"molecular_target": "T1, SARS-CoV-2 S protein (C-terminally …)", "assay": "cell-based or functional assay", "remark": "another data set of the same source", "units": {"IC50 (variant pseudovirus neutralization)": "pM"}, "values": [{"binder": "B1", "IC50 (variant pseudovirus neutralization)": 73}, {"binder": "B2", "IC50 (variant pseudovirus neutralization)": 12}, {"binder": "B3", "IC50 (variant pseudovirus neutralization)": 91}, {"binder": "B4", "IC50 (variant pseudovirus neutralization)": 15}, {"binder": "B5", "IC50 (variant pseudovirus neutralization)": 43}]}, {"molecular_target": "SARS-CoV-2 S protein N501Y (on pseudotyped virus) (SARS-CoV-2, UniProt P0DTC2 14-1254)", "assay": "cell-based or functional assay", "units": {"IC50 (variant pseudovirus neutralization)": "pM"}, "values": [{"binder": "B1", "IC50 (variant pseudovirus neutralization)": 21}, {"binder": "B2", "IC50 (variant pseudovirus neutralization)": 10}, {"binder": "B3", "IC50 (variant pseudovirus neutralization)": 82}, {"binder": "B4", "IC50 (variant pseudovirus neutralization)": 10}, {"binder": "B5", "IC50 (variant pseudovirus neutralization)": 28}]}, {"molecular_target": "SARS-CoV-2 S protein R683G (on pseudotyped virus) (SARS-CoV-2, UniProt P0DTC2 14-1254)", "assay": "cell-based or functional assay", "units": {"IC50 (variant pseudovirus neutralization)": "pM"}, "values": [{"binder": "B1", "IC50 (variant pseudovirus neutralization)": 13}, {"binder": "B2", "IC50 (variant pseudovirus neutralization)": 3}, {"binder": "B3", "IC50 (variant pseudovirus neutralization)": 178}, {"binder": "B4", "IC50 (variant pseudovirus neutralization)": 4}, {"binder": "B5", "IC50 (variant pseudovirus neutralization)": 8}]}, {"molecular_target": "SARS-CoV-2 S protein K417N + E484K + N501Y (on pseudotyped virus) (SARS-CoV-2, UniProt P0DTC2 14-1254)", "assay": "cell-based or functional assay", "units": {"IC50 (variant pseudovirus neutralization)": "pM"}, "values": [{"binder": "B1", "IC50 (variant pseudovirus neutralization)": 30}, {"binder": "B2", "IC50 (variant pseudovirus neutralization)": 115}, {"binder": "B3", "IC50 (variant pseudovirus neutralization)": 90}, {"binder": "B4", "IC50 (variant pseudovirus neutralization)": 47400}, {"binder": "B5", "IC50 (variant pseudovirus neutralization)": 14}]}, {"molecular_target": "SARS-CoV-2 S protein K417N (on pseudotyped virus) (SARS-CoV-2, UniProt P0DTC2 14-1254)", "assay": "cell-based or functional assay", "units": {"IC50 (variant pseudovirus neutralization)": "pM"}, "values": [{"binder": "B1", "IC50 (variant pseudovirus neutralization)": 27}, {"binder": "B2", "IC50 (variant pseudovirus neutralization)": 6}, {"binder": "B3", "IC50 (variant pseudovirus neutralization)": 68}, {"binder": "B4", "IC50 (variant pseudovirus neutralization)": 8}, {"binder": "B5", "IC50 (variant pseudovirus neutralization)": 21}]}, {"molecular_target": "SARS-CoV-2 S protein E484K (on pseudotyped virus) (SARS-CoV-2, UniProt P0DTC2 14-1254)", "assay": "cell-based or functional assay", "units": {"IC50 (variant pseudovirus neutralization)": "pM"}, "values": [{"binder": "B1", "IC50 (variant pseudovirus neutralization)": 41}, {"binder": "B2", "IC50 (variant pseudovirus neutralization)": 95}, {"binder": "B3", "IC50 (variant pseudovirus neutralization)": 149}, {"binder": "B4", "IC50 (variant pseudovirus neutralization)": 50000}, {"binder": "B5", "IC50 (variant pseudovirus neutralization)": 37}]}, {"molecular_target": "SARS-CoV-2 S protein (C-terminally truncated, on pseudotyped virus) (SARS-CoV-2 (Wuhan-Hu-1), UniProt P0DTC2 14-1254)", "assay": "cell-based or functional assay", "values": [{"binder": "B6", "IC50 (pseudovirus neutralization)": "1900 ng/ml and 141 nM", "IC90 (pseudovirus neutralization)": "3230 ng/ml and 239 nM"}, {"binder": "B7", "IC50 (pseudovirus neutralization)": "41 nM and 554 ng/ml", "IC90 (pseudovirus neutralization)": "4490 ng/ml and 332 nM"}]}]}
